Here are results for two molecules from patent publication US20240043559A1 (SHANGHAI HENLIUS BIOTECH, published 2024).

The target of assay [1] is human GPC3 expressed endogenously on hepatoma cells (HepG2, Hep3B) (human) (UniProt P51654). The experiment in a line: flow cytometry on Hep3B cells (endogenous GPC3). For orientation: A flow cytometer gives signals particle by particle.
For assay [2] the target is unchanged. In words: flow cytometry on HepG2 cells (endogenous GPC3).
Assay [3] has as its target recombinant human GPC3 protein (human) (UniProt P51654). In words: ELISA on plate-coated human GPC3. In general terms: An ELISA detects its analyte on a solid surface through an enzyme-linked reagent.
Assay [4] concerns the target T1, human GPC3 expressed endogenously on hepatoma cells (HepG2, Hep3B) (human, UniProt P51654 25-554).
T1 construct: also called GPC3 on HepG2; GPC3 on Hep3B
In words: flow cytometry on HepG2 cells (endogenous GPC3).

Chain of human GPC3 expressed endogenously on hepatoma cells (HepG2, Hep3B) (human) (P51654 other isoform, or with tags, fused parts or gaps limits assumed, form in doubt): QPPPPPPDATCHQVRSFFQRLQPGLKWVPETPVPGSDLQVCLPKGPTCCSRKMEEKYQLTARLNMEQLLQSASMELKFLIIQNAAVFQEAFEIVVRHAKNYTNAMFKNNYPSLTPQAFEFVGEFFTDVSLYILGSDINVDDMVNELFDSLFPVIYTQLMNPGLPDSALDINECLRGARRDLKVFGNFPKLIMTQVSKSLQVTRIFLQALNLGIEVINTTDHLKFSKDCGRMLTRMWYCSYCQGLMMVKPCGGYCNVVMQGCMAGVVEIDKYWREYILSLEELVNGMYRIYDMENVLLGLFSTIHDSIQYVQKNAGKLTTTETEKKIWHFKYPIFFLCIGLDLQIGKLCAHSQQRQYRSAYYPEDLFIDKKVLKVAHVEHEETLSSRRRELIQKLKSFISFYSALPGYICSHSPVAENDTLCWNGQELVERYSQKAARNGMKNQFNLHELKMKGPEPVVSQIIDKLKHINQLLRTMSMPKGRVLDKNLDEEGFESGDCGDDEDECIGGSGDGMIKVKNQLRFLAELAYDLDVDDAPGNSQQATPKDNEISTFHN
T1 sequence (P51654 other isoform, or with tags, fused parts or gaps limits assumed, form in doubt): as above
Chain of recombinant human GPC3 protein (human) (P51654 other isoform, or with tags, fused parts or gaps limits assumed, form in doubt): as above

HN3 VHH-Fc (Fc fusion): the values for the 50% effective concentration (EC50 (read off the curve)) in assay [1], in assay [2] and in assay [3] were 2 nM, 2 nM and 0.02 µg/mL, respectively.

B1: 1B01 llama-human chimeric bivalent VHH-Fc (Fc fusion)
chain: QVQLQESGGGLVQAGGSLRLSCAAVGLPFSNYAMGWFRQAPGEEREFVSAVSANGGNEYYADSVKDRFTISRDNAKNTVYLRMLSLKLEDTAIYYCATVRRRGGTFTVGSYRGQGTQVTVSS
notes: also called Clone 1B01; 1B01 llama VHH; not shown: human IgG1 Fc fused to the C-terminal of the VHH
B1: the “EC50 (read off the curve)” value in assay [4] is roughly 0.3 nM.

A word on the EC50 (read off the curve): it is the concentration at which the effect is half-maximal.
